These results are taken from patent US20120251453A1 (SANFORD BURNHAM MEDICAL RESEARCH INSTITUTE, published 2012).

In assay [1] the target is T1, annexin 1 (Anxa1) expressed on mouse endothelial cells (F-2 cells; tumor vasculature in mice) (mouse, UniProt P10107 2-346).
T1 construct: whole, on cells; Endogenous protein on cells; also called Anxa1 expressed on the endothelial cell surface
T1 sequence (looked up): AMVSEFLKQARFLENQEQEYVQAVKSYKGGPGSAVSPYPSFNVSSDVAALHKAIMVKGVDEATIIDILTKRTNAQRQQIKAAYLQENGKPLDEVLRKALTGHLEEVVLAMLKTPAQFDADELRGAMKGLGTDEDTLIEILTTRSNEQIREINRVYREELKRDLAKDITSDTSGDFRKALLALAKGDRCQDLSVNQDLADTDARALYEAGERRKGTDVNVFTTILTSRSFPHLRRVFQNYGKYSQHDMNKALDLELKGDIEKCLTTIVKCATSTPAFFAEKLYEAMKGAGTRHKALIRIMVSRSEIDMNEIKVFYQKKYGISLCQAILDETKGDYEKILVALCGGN
Put plainly: fluorescence microscopy of mouse endothelial F-2 cells cultured in vitro. How it is done: F-2 cells cultured on a filter of trans well insert was added with IF7C(RR)-conjugated FITC-poly-L-lysine to allow the reagent being bound to apical cell surface of F-2 cells. After washing the monolayer with medium, insert was placed in wells containing medium at 37° C. or at 4° C. Fluorescence moved to the lower chamber of insert was measured. C. Targeting and penetration of intravenously injected IF7C(RR)-conjugated FITC-poly-L-lysine in the B16 tumor in vivo in the mouse. Tissue section was immunostained for endothelial cell marker CD31.
Since IF7-SN38 is highly hydrophobic, there was a concern regarding a possibility that IF7-SN38 becomes insoluble after intravenous injection. Such may reduce the activity of IF7-SN38 in vivo. To increase the solubility of IF7-SN38 in aqueous environment, two arginine residues were added to IF7 after the cysteine residue. Thus IFLLWQR-C-RR (SEQ ID NO:17) or IF7C(RR) was synthesized. When IF7C(RR) was conjugated to FITC-poly-L-lysine, IF7C(RR)-conjugated FITC-poly-L-lysine bound to the surface of Anxa1-expressing mouse endothelial F-2 cells (FIG. 12A). […] When IF7C(RR)-conjugated FITC-poly-L-lysine was added to F-2 cells grown on a filter of the insert for trans well chamber, washed and then incubated in a medium at 37° C. or at 4° C., fluorescence migrated to the lower chamber from cells incubated at 37° C. but not at 4° C. […]

Assay [2] deals with T1, annexin 1 (Anxa1) expressed on mouse …. The assay is described as follows: intravital fluorescence of LLC tumors in a dorsal skinfold chamber after intravenous injection; signal intensity over time. Here is the method:
The line with the lowest signal at 10 minutes represents RQ7-A488. Intensity of fluorescence was determined by Image J program. Error bars represent SD (n=3). Asterisks show statistical significance or p<0.0001, t test. (C) Fluorescence micrographs of tumor sections 20 min after injection with IF7-A488 and RQ7-A488. From left: IF7-A488, DAPI, merged, and bright field. IF7-A488 signals (upper row) were detected on endothelial cells of tumor vasculature (Scale bar=50 μm), while no RQ7-A488 signal was detected (lower row). Experiments were repeated 3 times, and representative results are shown. Arrows indicate fluorescence. (D) Fluorescence remained in circulation in mice with or without subcutaneous B16 tumors. IF7-A488 was injected intravenously through the tail vein, and fluorescence remaining in circulation was measured. […]
A Lewis lung carcinoma (LLC) tumor was produced in a donor nude mouse by subcutaneous injection, and small piece of tumor (less than 1 mm³) was transplanted to a dorsal skinfold chamber in a recipient nude mouse (8-10 weeks female Balb/c nude) as described (Lehr et al., Am J Pathol 1993; 143:1055-62; Oh et al., Nat Biotechnol 2007; 25:327-37). […] Signal intensity in the tumor from 0 min to 40 min was measured by Image J (NIH, Maryland). After 10 min, irradiation of specimens by a UV lamp was limited only to times when photos were taken to avoid fluorescence bleaching. […]

The target of assay [3] is recombinant Anxa1-His6 protein. Put plainly: isothermal titration calorimetry, peptide injected into Anxa1-His protein, 23° C.; average over two Anxa1-His preparations. (In general: ITC needs no label: the signal is the heat of the interaction.)
The target of assay [4] is T1, annexin 1 (Anxa1) expressed on mouse …. The assay is described as follows: intravital fluorescence of LLC tumors in a dorsal skinfold chamber after intravenous injection; signal intensity over time, with or without pre-injected rabbit IgG or anti-Anxa1 antibody. Here is the method:
(A) Lewis lung carcinoma (LLC) tumors were allowed to vascularize for 3 days in dorsal skinfold chamber window in nude mice. Mice were injected with 100 μl of 50 μM IF7-A488 (row a) or RQ7-A488 (row b) in 5% glucose in water. IF7-A488 was also injected to tumor-bearing mice pre-injected with rabbit IgG (row c) or with rabbit anti-Anxa1 antibody (row d). Fluorescence signals were monitored under a fluorescence microscope up to 40 min post-injection. From left: bright field before injection, and fluorescence at 0, 5, 20 min after injection. Far right, the boundary of tumor and stroma at 20 min (Scale bar=500 μm). (B) Quantitative analysis of fluorescence during the course of the analysis shown in A. The line with the highest signal at 10 minutes represents IF&-A488. The line with the second highest signal at 10 minutes represents the control IgG. […] Intensity of fluorescence was determined by Image J program. […] (C) Fluorescence micrographs of tumor sections 20 min after injection with IF7-A488 and RQ7-A488. […] IF7-A488 signals (upper row) were detected on endothelial cells of tumor vasculature (Scale bar=50 μm), while no RQ7-A488 signal was detected (lower row). […] Arrows indicate fluorescence. (D) Fluorescence remained in circulation in mice with or without subcutaneous B16 tumors. IF7-A488 was injected intravenously through the tail vein, and fluorescence remaining in circulation was measured. […]

Assay [5] shares this target. The assay is described as follows: in vivo phage targeting in B16 tumor-bearing mice pre-injected with control rabbit IgG or anti-Anxa1 antibody; colonies recovered from tissue homogenates. An excerpt:
FIGS. 1A-1H show the essential role of annexin 1 (Anxa1) in tumor growth and identification of a peptide sequence with tumor vasculature targeting activity in vivo. A and B. Growth of B16 tumors subcutaneously injected into Anxa1(+/−) and Anxa1(−/−) mutant mice. C. Histology of B16 tumors produced in Anxa1(+/−) and Anxa1(−/−) mice. Each scale bar represents 2.00 mm. D. Immunohistochemistry of B16 tumors for CD31 showing endothelial cells and vasculature. Each scale bar represents 200 μm. E. In vivo phage targeting in B16 tumor-bearing mice. Numbers of transformed colonies recovered from the tumor or lung were determined. […] F. In vivo tumor and organ targeting activity of IFLLWQR (SEQ ID NO:2) displaying phage. Phage was injected into B16 tumor bearing mice pre-injected with anti-Anxa1 antibody or with control rabbit IgG. G. In vitro plate assay for binding of IF7-A488 (upper line) and control RQ7-A488C (lower line) to recombinant […] protein produced by bacteria. H. Effect of IF7 (upper line) and control RQ7 (lower line) on binding of FITC-labeled polyacrylamide-LeA oligosaccharide to Anxa1-His₆ protein.
Mouse melanoma B16F1 cells (2×10⁵ cells/100 μl PBS) were injected subcutaneously into the dorsal flank of C57BL/6 female mice (8-10 weeks old). […] Colonies appearing on an agar plate after culturing at 37° C. for 20 hours were counted.

No end group written: not given here. Alexa Fluor 488 C5‑maleimide = fluorescent dye linked to the Cys thiol through maleimide

B1: IF7C(RR)-conjugated FITC-poly-L-lysine (peptide, not shown: large carriers)
peptide: IFLLWQRCRR
modifications: also: conjugated to FITC-poly-L-lysine, site and chemistry not given here
notes: Polymer conjugate; also called IF7C(RR)-conjugated FITC-polylysine; IF7C(RR)-conjugated FITC-poly-lysine
With B1, in assay [1], the binding result is “binds”.

B2: RQ7-A488 (Alexa 488 conjugated with RQWLLFI or reverse IF7) (peptide)
peptide: RQWLLFI
modifications: also: Alexa 488 conjugated, site of attachment not given here
notes: also called RQ7-A488C; control RQ7-A488
With B2, the binding result in assay [2] was “no binding”.

B3: IF7K3C peptide (…) (peptide)
peptide: IFLLWQRKKKC
As usually defined, the Kd is a measure of binding affinity in units of concentration. On to B3, for which the Kd in assay [3] was determined as 11 µM.

B4: IF7-A488 (chemically synthesized IF7 conjugated with fluorescent Alexa 488) (peptide)
peptide: IFLLWQRC(Alexa Fluor 488 C5‑maleimide)
notes: Synthetic peptide (GenScript)
For B4, the binding result in assay [4] was “binds”.

B5: IFLLWQR (SEQ ID NO:2) displaying phage (peptide, not shown: large carriers)
peptide: IFLLWQR
notes: also called IF7 phage; clone #2
Take B5: the binding result in assay [5] is “binds”.
